molecular target: CXCR4 mimetic peptide CX4-M1; test: SPR; Biacore X100, Biotin CAPture Kit; CX4-M1 (2 μM) bound to streptavidin; gp120 8–0.5 nM; HBS-N (10 mM HEPES, 150 mM NaCl, pH 7.4), 0.05% Tween 20, 2.5 mM MgCl2; no sCD4; settings: not given

Substance | Kd [µM]
Gp120_(IIIB) (natural protein) | 0.1
gp120MN (natural protein) | 0.7
gp120_(HxBc2) (from UniProt P04578 33-511) (natural protein) | 0.2

molecular target: CXCR4 mimetic peptide CX4-M1; test: SPR; Biacore X100, Biotin CAPture Kit; CX4-M1 (2 μM) bound to streptavidin; V3 loop peptides 5–0.3 μM; HBS-N (10 mM HEPES, 150 mM NaCl, pH 7.4), 0.05% Tween 20, 100 mM MgCl2; no sCD4; settings: not given

Substance | Kd [µM]
V3 loop peptide V3_(HxBc2) | 0.3

molecular target: CXCR4 mimetic peptide CX4-M1; test: direct ELISA; settings: parent: 1; read off a plot

Substance | ratio to parent
V3 loop peptide V3_(HxBc2) I309A | 0.13
V3 loop peptide V3_(HxBc2) T319A | 0.63
V3 loop peptide V3_(HxBc2) I323A | 0.53
V3 loop peptide V3_(HxBc2) M326A | 1.3
V3 loop peptide V3_(HxBc2) R311A | 1.4
V3 loop peptide V3_(HxBc2) G314A | 0.86
V3 loop peptide V3_(HxBc2) I320A | 0.16
V3 loop peptide V3_(HxBc2) G321A | 0.7
V3 loop peptide V3_(HxBc2) F317A | 0.16
V3 loop peptide V3_(HxBc2) P313A | 0.67
V3 loop peptide V3_(HxBc2) N325A | 1.3
V3 loop peptide V3_(HxBc2) I307A | 0.18
V3 loop peptide V3_(HxBc2) R315A | 0.46
V3 loop peptide V3_(HxBc2) G324A | 1.4
V3 loop peptide V3_(HxBc2) V318A | 0.41
V3 loop peptide V3_(HxBc2) Q310A | 1
V3 loop peptide V3_(HxBc2) R308A | 0.57
V3 loop peptide V3_(HxBc2) K322A | 2.1
V3 loop peptide V3_(HxBc2) G312A | 0.82
V3 loop peptide V3_(HxBc2) R306A | 0.78

Source: article PMC3760305, “Mimicking Protein–Protein Interactions through Peptide–Peptide Interactions: HIV-1 gp120 and CXCR4” (Frontiers in Immunology, 2013)
